Biological target: H1 A/New Caledonia/20/1999 haemagglutinin, wild-type trimeric protein (influenza A virus A/New Caledonia/20/1999 (H1N1)) (UniProt Q6WG00)
Assay: ELISA

With “CR6261 inferred germline antibody, germline heavy and germline light chain, soluble IgG” the ELISA endpoint dilution titre was over 100 µg/mL.
In the case of “CR6261 somatic (mature) antibody, somatic heavy and somatic light chain, soluble IgG”, the ELISA endpoint dilution titre is reported as 0.00133 µg/mL.
